Assay results taken from patent US20220064310A1 (DEVELOPMENT CENTER FOR BIOTECHNOLOGY, published 2022).

Legend:
[1] = molecular target: T1, CSF-1R-ECD-human Fc (in house) (human, UniProt P07333 20-512); test: ELISA, coated CSF1R-ECD-hFc 1 ug/ml, anti-kappa HRP, one site specific binding fit (GraphPad Prism)
T1 construct: In-house fusion; also called CSF-1R-ECD-hFc; CSF1R-ECD-hFc; not shown: human Fc
Protocol: (§1) To know the binding affinity differences among individual antibodies, ELISA method was used. ELISA plate was coated with 1 μg/ml of CSF1R-ECD-hFc, then add assay antibodies diluted from 50 nM to 1×10⁻⁵ nM (5-10× fold dilution). Assay was measured by adding anti-kappa HRP secondary antibody (1:5000 dilution). Binding curve and KD were determined with GraphPad Prism software using one site-specific binding for nonlinear fit methods. […] This loss of avidity was recovered by back mutations, as evidenced by humanized antibodies B1-Hu, B2-Hu, B1-B1, and B2-B1 clones. (See FIG. 11 and FIG. 12).

[2] = molecular target: T1, CSF-1R-ECD-human Fc (in house); test: ELISA, CSF1R-ECD-hFc coated at 1 ug/ml, anti-kappa HRP, one site-specific binding fit
Protocol: as §1

[3] = molecular target: T1, CSF-1R-ECD-human Fc (in house); test: ELISA, coated CSF1R-ECD-hFc 1 ug/ml, anti-kappa HRP, OD450
Protocol: as §1

[4] = molecular target: T1, CSF-1R-ECD-human Fc (in house); test: ELISA, CSF1R-ECD-hFc coated at 1 ug/ml, anti-kappa HRP
Protocol: as §1

T1 sequence (P07333 20-512): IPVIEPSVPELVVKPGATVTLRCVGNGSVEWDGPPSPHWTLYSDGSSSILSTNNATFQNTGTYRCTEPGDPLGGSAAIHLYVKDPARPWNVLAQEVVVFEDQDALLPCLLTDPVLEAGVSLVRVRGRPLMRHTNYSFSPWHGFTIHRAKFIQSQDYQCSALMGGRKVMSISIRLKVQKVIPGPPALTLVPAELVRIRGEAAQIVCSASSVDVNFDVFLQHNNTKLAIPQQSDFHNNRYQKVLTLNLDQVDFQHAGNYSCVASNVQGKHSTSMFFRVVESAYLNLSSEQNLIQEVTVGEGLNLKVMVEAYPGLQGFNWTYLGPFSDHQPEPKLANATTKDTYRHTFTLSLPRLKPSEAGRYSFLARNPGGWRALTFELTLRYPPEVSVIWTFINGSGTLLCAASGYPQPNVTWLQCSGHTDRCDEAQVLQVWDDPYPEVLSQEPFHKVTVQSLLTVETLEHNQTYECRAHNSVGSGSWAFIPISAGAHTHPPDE

Binder	Bmax [1]	Kd [2] [pM]	also measured
M-M(IgG4) (antibody, V domains shown, an IgG1 and an IgG4 form) VH: EVQLQQSGPELEKPGASVKISCKASGYSFTGYNMNWVKQSNGKSLEWIGNIDPYYGGTTYNQKFKGKATLTVDKSSSTAYMQLKSLTSEDSAVYYCARRGDYSGSSYWYFDVWGAGTTVTVSS VL: DIQMTQSSSYLSVSLGGRVTITCKASDHINNWLAWYQQKPGNAPRLLISGATSLETGVPSRFSGSGSGKDYTLSITSLQTEDVVTYYCQQYWSTPFTFGSGTKLEIK	3.2		
B1-Hu(IgG4) (antibody, V domains shown, an IgG1 and an IgG4 form) VH: EVQLVQSGAEVKKPGATVKISCKVSGYSFTGYNMNWVQQAPGKGLEWMGNIDPYYGGTTYNQKFKGKATLTVDKSTSTAYMELSSLRSEDTAVYYCARRGDYSGSSYWYFDVWGQGTLVTVSS VL: DIQMTQSPSSLSASVGDRVTITCKASDHINNWLAWYQQKPGKAPKLLLYGATSLETGVPSRFSGSGSGTDYTLTISSLQPEDFATYYCQQYWSTPFTFGQGTKVEIK	3.19		
humanized AB21 B1-Hu (AB21 VHB1 with Hu AB21 VL) (antibody, V domains shown, Human IgG from vector pTCAE8-AB21 in FreeStyle 293 cells, kappa light chain; also called heavy chain B1 combined with light chain Hu) VH: EVQLVQSGAEVKKPGATVKISCKVSGYSFTGYNMNWVQQAPGKGLEWMGNIDPYYGGTTYNQKFKGKATLTVDKSTSTAYMELSSLRSEDTAVYYCARRGDYSGSSYWYFDVWGQGTLVTVSS VL: DIQMTQSPSSLSASVGDRVTITCKASDHINNWLAWYQQKPGKAPKLLLYGATSLETGVPSRFSGSGSGTDYTLTISSLQPEDFATYYCQQYWSTPFTFGQGTKVEIK		95.8	
humanized AB21 B1-B1 (AB21 VHB1 with AB21 VLB1) (antibody, V domains shown, Human IgG from vector pTCAE8-AB21 in FreeStyle 293 cells, kappa light chain; also called heavy chain B1 combined with light chain B1) VH: EVQLVQSGAEVKKPGATVKISCKVSGYSFTGYNMNWVQQAPGKGLEWMGNIDPYYGGTTYNQKFKGKATLTVDKSTSTAYMELSSLRSEDTAVYYCARRGDYSGSSYWYFDVWGQGTLVTVSS VL: DIQMTQSPSSLSASLGDRVTITCKASDHINNWLAWYQQKPGKAPKLLLSGATSLETGVPSRFSGSGSGTDYTLTISSLQPEDFATYYCQQYWSTPFTFGQGTKVEIK		55.8	
humanized AB21 B2-Hu (Hu AB21 VHB2 with Hu AB21 VL) (antibody, V domains shown, Human IgG from vector pTCAE8-AB21 in FreeStyle 293 cells, kappa light chain) VH: EVQLVQSGAEVKKPGASVKISCKVSGYSFTGYNMNWVKQAPGKGLEWIGNIDPYYGGTTYNQKFKGKATLTVDKSTSTAYMELSSLRSEDTAVYYCARRGDYSGSSYWYFDVWGQGTLVTVSS VL: DIQMTQSPSSLSASVGDRVTITCKASDHINNWLAWYQQKPGKAPKLLLYGATSLETGVPSRFSGSGSGTDYTLTISSLQPEDFATYYCQQYWSTPFTFGQGTKVEIK	3.17		EC50 (read off the curve) [3]: ~80 pM
humanized AB21 Hu-Hu (Hu AB21 VH with Hu AB21 VL), the initial humanized antibody (antibody, V domains shown, Human IgG from vector pTCAE8-AB21 in FreeStyle 293 cells, kappa light chain (anti-kappa HRP detection); also called heavy chain Hu combined light chain Hu) VH: EVQLVQSGAEVKKPGATVKISCKVSGYSFTGYNMNWVQQAPGKGLEWMGNIDPYYGGTTYNQKFKGRVTITADTSTDTAYMELSSLRSEDTAVYYCATRGDYSGSSYWYFDVWGQGTLVTVSS VL: DIQMTQSPSSLSASVGDRVTITCKASDHINNWLAWYQQKPGKAPKLLLYGATSLETGVPSRFSGSGSGTDYTLTISSLQPEDFATYYCQQYWSTPFTFGQGTKVEIK		83000	fold lower affinity than the original mouse antibody (M-M) [4]: ~1000 fold
B1-Hu(IgG1) (antibody, V domains shown, an IgG1 and an IgG4 form) VH: EVQLVQSGAEVKKPGATVKISCKVSGYSFTGYNMNWVQQAPGKGLEWMGNIDPYYGGTTYNQKFKGKATLTVDKSTSTAYMELSSLRSEDTAVYYCARRGDYSGSSYWYFDVWGQGTLVTVSS VL: DIQMTQSPSSLSASVGDRVTITCKASDHINNWLAWYQQKPGKAPKLLLYGATSLETGVPSRFSGSGSGTDYTLTISSLQPEDFATYYCQQYWSTPFTFGQGTKVEIK			EC50 (read off the curve) [3]: ~40 pM
AB21 M-M (mouse heavy chain variable region with mouse light chain variable region, recombinant) (antibody, V domains shown) VH: EVQLQQSGPELEKPGASVKISCKASGYSFTGYNMNWVKQSNGKSLEWIGNIDPYYGGTTYNQKFKGKATLTVDKSSSTAYMQLKSLTSEDSAVYYCARRGDYSGSSYWYFDVWGAGTTVTVSS VL: DIQMTQSSSYLSVSLGGRVTITCKASDHINNWLAWYQQKPGNAPRLLISGATSLETGVPSRFSGSGSGKDYTLSITSLQTEDVVTYYCQQYWSTPFTFGSGTKLEIK		93.6	
